Test results: publication doi:10.1101/2025.09.11.675134, “Biodistribution-Driven Discovery Identifies a Glycosidase-Cleavable Linker to Reprogram Radiotheranostics” (bioRxiv, 2025)
Like-named read-outs stand apart in the source and are kept apart here. Positions of bridges follow the written chain, without caps; N, C: chain ends. Non-standard residues stand in square brackets, D forms with d. Residues, ends and D or L forms follow the SMILES beside them. *: point of attachment. DOTA = O=C(O)CN1CCN(CC(=O)O)CCN(CC(=O)*)CCN(CC(=O)O)CC1

Experiment: Ex vivo biodistribution screen of 111In-labeled DOTA-TATE derivatives in normal mice
Parameters: species or system athymic nude mice
Conditions: 2 h post-injection; for tissue uptake at 2 h: athymic nude, mouse, iv, 1 ug per mouse, total radioactivity; for Relative kidney retention, % rel. to DOTA-TATE: normal mice, 111In-DOTA-TATE set as 100%
Procedure: The panel of 10 compounds were then tested in an initial biodistribution screen of 9 organs assessed in non-tumor-bearing mice at specific timepoints following administration of the radioconjugates. Each agent was initially labeled with ^111In, a long-lived gamma-emitting radioisotope suitable for biodistribution studies, with high radiochemical yields and purity (Fig. S12). The compounds were then dosed (1.55 ± 0.12 MBq; 1 μg per mouse) in healthy athymic nude mice via intravenous (i.v.) injection in phosphate-buffered saline (PBS; vehicle). After 2 hours, the mice were sacrificed and ex vivo biodistribution analysis was performed (Fig. 2). […] This was an expected finding because this variant was designed to bind serum albumin.
Radiolabeling and In Vivo Evaluation of DOTA-TATE Variants:
Biodistribution, PET Quantification, and Dosimetry
Radiolabeling: To perform the initial biodistribution screen, radiolabeling of 10 compounds, including DOTA-TATE, was carried out using 111In (Cardinal Health, Arbutus, MD, USA), an affordable and readily available gamma -emitting radioisotope with a moderate half -life (2.83 days), which affords efficient DOTA radiolabeling and facilitates handling. 111InCl3 (28 – 36 MBq) was diluted with 0.4 M NH 4OAc buffer (pH 5.2) and combined with DOTA -TATE variants (20 μg). The solution was mixed well and then incubated at 90 °C for 30 min.
Radiolabeling efficiency and radiochemical purity were determined by radio -TLC and radio - HPLC. Radiochemical yield was >95% and the material was used without further purification.
The specific activity was 1.55 ± 0.12 TBq/g (41.9 ± 3.2 Ci/g). […]
Radio-instant thin-layer chromatography (radio-iTLC) was performed using silicic acid-impregnated glass microfiber paper strips (iTLC-SA, Varian, Lake Forest, CA, USA) as the stationary phase, and 50 mM EDTA in 100 mM NH4OAc (pH 5.5) as the mobile phase, analyzed with a radio-TLC scanner (AR-2000, Eckert-Ziegler, Wilmington, MA, USA). For Ac-225, equilibration was allowed for at least 12 hours before scanning the TLC strips to confirm initial scans. Radio-HPLC analysis (Agilent 1260 Infinity II, Agilent Technologies Inc., Santa Clara, CA, USA) was conducted on a TSK- Octadecyl-4PW column (5 µm, 4.6 mm ID × 15 cm, Tosoh
Co. Tokyo, Japan) with gradient elution using 0.1% trifluoroacetic acid in water as mobile phase A and 0.1% trifluoroacetic acid in acetonitrile as Mobile phase B. The elution sequence was 0-5 […]
PET imaging and biodistribution: For initial biodistribution screen studies, normal mice were administered 1.4 – 1.8 MBq (1 μg) of 111In-DOTA-TATE variants via tail vein injection and biodistribution studies were conducted at 2 hours post -injection (n = 2 – 4 per cohort).
For studies involving three variants (DOTA -TATE, DOTA-MVK(ε)-TATE, and DOTA-β-Gal-TATE), AR42J cells (5 × 10^6 cells per mouse) were subcutaneously inoculated into the right shoulder of the mice. Tumors were allowed to grow for 3 weeks, reaching a volume of 100 –200 mm³ before being used in subsequent experiments. For biodistribution or PET imaging studies, mice bearing subcutaneous AR42J tumors were administered 1.4 – 1.8 MBq (1 μg) of 111In-labeled DOTA-TATE variants or 2.7 – 4.9 MBq (1 μg) of 86Y-labeled DOTA-TATE variants via tail vein injection. Biodistribution studies with 111In-labeled DOTA -TATE variants were performed 1 hour post -injection (n = 3 per cohort), while studies with 86Y-labeled DOTA-TATE variants were conducted at 1, 4, and 24 hours post -injection (n = 3 per cohort). Mice were euthanized by CO2 asphyxiation, and 10 tissues, including tumors, were collected. All samples were weighed and counted on a gamma counter (2480 Wizard 3, Perkin Elmer Inc., Waltham, MA, USA). Results are presented as percentage of injected activity per gram (%IA/g) and mean values ± standard deviations.
PET imaging to assess the uptake of three 86Y-labeled DOTA-TATE variants (2.7 – 4.9 MBq, 1 […]

[1] = blood, normal athymic nude mice, i.v. 1 μg (1.4–1.8 MBq), ex vivo gamma counting, mean, n = 2–4, read-out: Blood uptake
[2] = femur, normal athymic nude mice, i.v. 1 μg, ex vivo, mean, n = 2–4, read-out: Femur uptake
[3] = heart, normal athymic nude mice, i.v. 1 μg, ex vivo, mean, n = 2–4, read-out: Heart uptake
[4] = intestine, normal athymic nude mice, i.v. 1 μg, ex vivo, mean, n = 2–4, read-out: Intestine uptake
[5] = liver, normal athymic nude mice, i.v. 1 μg, ex vivo, mean, n = 2–4, read-out: Liver uptake
[6] = lung, normal athymic nude mice, i.v. 1 μg, ex vivo, mean, n = 2–4, read-out: Lung uptake
[7] = muscle, normal athymic nude mice, i.v. 1 μg, ex vivo, mean, n = 2–4, read-out: Muscle uptake
[8] = spleen, normal athymic nude mice, i.v. 1 μg, ex vivo, mean, n = 2–4, read-out: Spleen uptake

SMILES: C[C@@H](O)[C@H](NC(=O)[C@@H]1CSSC[C@H](NC(=O)[C@@H](Cc2ccccc2)NC(=O)[C@H](Cc2ccc(O)cc2)NC(=O)CNC(=O)CN2CCN(CC(=O)O)CCN(CC(=O)O)CCN(CC(=O)O)CC2)C(=O)N[C@@H](Cc2ccc(O)cc2)C(=O)N[C@H](Cc2c[nH]c3ccccc23)C(=O)N[C@@H](CCCCN)C(=O)N[C@@H]([C@@H](C)O)C(=O)N1)C(=O)O [^111In-DOTA-GY-TATE, metal not drawn] ({DOTA}-GY[dF]CY[dW]KTCT-OH; disulfide 4-9)
- tissue uptake at 2 h [1]: 0.09 %ID/g
- tissue uptake at 2 h [2]: 0.14 %ID/g
- tissue uptake at 2 h [3]: 0.09 %ID/g
- tissue uptake at 2 h [4]: 0.74 %ID/g
- tissue uptake at 2 h [5]: 0.18 %ID/g
- tissue uptake at 2 h [6]: 1.07 %ID/g
- tissue uptake at 2 h [7]: 0.03 %ID/g
- tissue uptake at 2 h [8]: 0.17 %ID/g
- Relative kidney retention, % rel. to DOTA-TATE: 297%

SMILES: C[C@@H](O)[C@H](NC(=O)[C@@H]1CSSC[C@H](NC(=O)[C@@H](Cc2ccccc2)NC(=O)CCCC(=O)Nc2cc(COC(=O)N(C)CCNC(=O)CN3CCN(CC(=O)O)CCN(CC(=O)O)CCN(CC(=O)O)CC3)ccc2O[C@@H]2O[C@H](C(=O)O)[C@@H](O)[C@H](O)[C@H]2O)C(=O)N[C@@H](Cc2ccc(O)cc2)C(=O)N[C@H](Cc2c[nH]c3ccccc23)C(=O)N[C@@H](CCCCN)C(=O)N[C@@H]([C@@H](C)O)C(=O)N1)C(=O)O [^111In-DOTA-GlcA-TATE, metal not drawn]
- tissue uptake at 2 h [1]: 0.08 %ID/g
- tissue uptake at 2 h [2]: 0.1 %ID/g
- tissue uptake at 2 h [3]: 0.08 %ID/g
- tissue uptake at 2 h [4]: 0.44 %ID/g
- tissue uptake at 2 h (kidney, normal athymic nude mice, i.v. 1 μg, ex vivo, mean (± SD), n = 2–4, read-out: Kidney uptake): 8.88 %ID/g
- tissue uptake at 2 h [5]: 0.13 %ID/g
- tissue uptake at 2 h [6]: 0.19 %ID/g
- tissue uptake at 2 h [7]: 0.03 %ID/g
- tissue uptake at 2 h [8]: 0.08 %ID/g
- Relative kidney retention, % rel. to DOTA-TATE: 147%

SMILES: CSCC[C@H](NC(=O)CN1CCN(CC(=O)O)CCN(CC(=O)O)CCN(CC(=O)O)CC1)C(=O)N[C@H](C(=O)N[C@@H](CCCCN)C(=O)N[C@H](Cc1ccccc1)C(=O)N[C@H]1CSSC[C@@H](C(=O)N[C@H](C(=O)O)[C@@H](C)O)NC(=O)[C@H]([C@@H](C)O)NC(=O)[C@H](CCCCN)NC(=O)[C@@H](Cc2c[nH]c3ccccc23)NC(=O)[C@H](Cc2ccc(O)cc2)NC1=O)C(C)C [^111In-DOTA-MVK-TATE, metal not drawn] ({DOTA}-MVK[dF]CY[dW]KTCT-OH; disulfide 5-10)
- tissue uptake at 2 h [1]: 0.09 %ID/g
- tissue uptake at 2 h [2]: 0.25 %ID/g
- tissue uptake at 2 h [3]: 0.07 %ID/g
- tissue uptake at 2 h [4]: 0.78 %ID/g
- tissue uptake at 2 h [5]: 0.25 %ID/g
- tissue uptake at 2 h [6]: 0.51 %ID/g
- tissue uptake at 2 h [7]: 0.02 %ID/g
- tissue uptake at 2 h [8]: 0.18 %ID/g
- Kidney uptake (normal athymic nude mice, i.v. 1 μg, ex vivo, mean (± SD), n = 2–4): 75.65 %IA/g
- Relative kidney retention, % rel. to DOTA-TATE: 1251%

SMILES: C[C@@H](O)[C@H](NC(=O)[C@@H]1CSSC[C@H](NC(=O)[C@@H](Cc2ccccc2)NC(=O)CCCC(=O)Nc2cc(COC(=O)N(C)CCNC(=O)CN3CCN(CC(=O)O)CCN(CC(=O)O)CCN(CC(=O)O)CC3)ccc2O[C@@H]2O[C@H](CO)[C@@H](O)[C@H](O)[C@H]2O)C(=O)N[C@@H](Cc2ccc(O)cc2)C(=O)N[C@H](Cc2c[nH]c3ccccc23)C(=O)N[C@@H](CCCCN)C(=O)N[C@@H]([C@@H](C)O)C(=O)N1)C(=O)O [^111In-DOTA-β-Glu-TATE, metal not drawn]
- tissue uptake at 2 h (in vivo, normal athymic nude mice, i.v. 1 μg (1.4–1.8 MBq), ex vivo gamma counting, mean, n = 2–4, read-out: Blood uptake): 0.09 %ID/g
- tissue uptake at 2 h (in vivo, normal athymic nude mice, i.v. 1 μg, ex vivo, mean (± SD), n = 2–4, read-out: Kidney uptake): 6.34 %ID/g
- tissue uptake at 2 h (in vivo, normal athymic nude mice, i.v. 1 μg, ex vivo, mean, n = 2–4, read-out: Femur uptake): 0.21 %ID/g
- tissue uptake at 2 h (in vivo, normal athymic nude mice, i.v. 1 μg, ex vivo, mean, n = 2–4, read-out: Heart uptake): 0.07 %ID/g
- tissue uptake at 2 h (in vivo, normal athymic nude mice, i.v. 1 μg, ex vivo, mean, n = 2–4, read-out: Intestine uptake): 1.07 %ID/g
- tissue uptake at 2 h (in vivo, normal athymic nude mice, i.v. 1 μg, ex vivo, mean, n = 2–4, read-out: Liver uptake): 0.19 %ID/g
- tissue uptake at 2 h (in vivo, normal athymic nude mice, i.v. 1 μg, ex vivo, mean, n = 2–4, read-out: Lung uptake): 0.51 %ID/g
- tissue uptake at 2 h (in vivo, normal athymic nude mice, i.v. 1 μg, ex vivo, mean, n = 2–4, read-out: Muscle uptake): 0.03 %ID/g
- tissue uptake at 2 h (in vivo, normal athymic nude mice, i.v. 1 μg, ex vivo, mean, n = 2–4, read-out: Spleen uptake): 0.16 %ID/g
- Relative kidney retention, % rel. to DOTA-TATE: 105%
